Results published in the supplement of paper PMC10567573.

B1: ZNF207 (parent)
chain: CHICHKKLYTGPGLAIHCMQVHKE
B2: NEK8 (parent)
chain: YTFGSNQHGQLGTNTRRGSRAPCK

Variants of: B1
Test: protein stability index of a GFP-peptide fusion (GPS, HEK-293T) (PSI 1-6); higher = more stable
Settings: c terminus: a fixed tail appended
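Also: lentivirally expressed fusions sorted by FACS into six bins by GFP to DsRed ratio, PSI derived from sequencing read proportions per bin multiplied by bin number.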

Q: For CHICHKKLYTGPGLAIHCMQVSKE, which protein stability index is on record?
A: Its protein stability index is 1.85.

Q: With CHICHKKLYTGPGLAIHCMQVQKE as the variant, how does the protein stability index read?
A: Its protein stability index is 1.8.

Q: With CHICHKKLYTGPGLAIHCMQVRKE as the variant, how does the protein stability index read?
A: The protein stability index was 2.11.

Q: For CHICHKKLYTGPGLAIHCMQVTKE, which protein stability index is on record?
A: The protein stability index was 2.48.

Q: For CHICHKKLYTGPGLAIHCMQVVKE, which protein stability index is on record?
A: The protein stability index was 2.03.

Q: Which protein stability index does the source give for CHICHKKLYTGPGLAIHCMQVYKE here?
A: The protein stability index was 1.45.

Q: Which protein stability index does the source give for CHICHKKLYTGPGLAIHCMQVWKE here?
A: The protein stability index was 1.68.

Q: For CHICHKKLYTGPGLAIHCMQVHKM, which protein stability index is on record?
A: The protein stability index was 2.11.

Q: For CHICHKKLYTGPGLAIHCMQVHKD, which protein stability index is on record?
A: The protein stability index was 2.84.

Q: For CHICHKKLYTGPGLAIHCMQVHKH, which protein stability index is on record?
A: The protein stability index was 2.18.

Q: With CHICHKKLYTGPGLAIHCMQVHKL as the variant, how does the protein stability index read?
A: Its protein stability index is 2.6.

Q: With CHICHKKLYTGPGLAIHCMQVHKC as the variant, how does the protein stability index read?
A: Its protein stability index is 3.29.

Q: Which protein stability index does the source give for CHICHKKLYTGPGLAIHCMQVHKV here?
A: Its protein stability index is 3.65.

Q: Which protein stability index does the source give for CHICHKKLYTGPGLAIHCMQVHKF here?
A: Its protein stability index is 2.53.

Q: With CHICHKKLYTGPGLAIHCMQVHKP as the variant, how does the protein stability index read?
A: Its protein stability index is 2.63.

Q: With CHICHKKLYTGPGLAIHCMQVHKQ as the variant, how does the protein stability index read?
A: Its protein stability index is 2.85.

Q: Which protein stability index does the source give for CHICHKKLYTGPGLAIHCMQVHKI here?
A: Its protein stability index is 3.47.

Q: Which protein stability index does the source give for CHICHKKLYTGPGLAIHCMQVHKR here?
A: Its protein stability index is 2.34.

Q: Which protein stability index does the source give for CHICHKKLYTGPGLAIHCMQVHKK here?
A: The protein stability index was 2.65.

Q: For CHICHKKLYTGPGLAIHCMQVHKA, which protein stability index is on record?
A: The protein stability index was 2.66.

Q: Which protein stability index does the source give for CHICHKKLYTGPGLAIHCMQVHKN here?
A: Its protein stability index is 2.44.

Q: Which protein stability index does the source give for CHICHKKLYTGPGLAIHCMQVHKS here?
A: The protein stability index was 3.17.

Q: For CHICHKKLYTGPGLAIHCMQVHKG, which protein stability index is on record?
A: The protein stability index was 2.55.

Q: Which protein stability index does the source give for CHICHKKLYTGPGLAIHCMQVHKW here?
A: The protein stability index was 2.49.

Q: With CHICHKKLYTGPGLAIHCMQVHKY as the variant, how does the protein stability index read?
A: The protein stability index was 2.74.

Q: Which protein stability index does the source give for CHICHKKLYTGPGLAIHCMQVHKT here?
A: The protein stability index was 2.96.

Q: Which protein stability index does the source give for CHICHKKLYTGPGLAIHCMQVHRE here?
A: The protein stability index was 3.13.

Q: For CHICHKKLYTGPGLAIHCMQVHSE, which protein stability index is on record?
A: Its protein stability index is 3.35.

Q: With CHICHKKLYTGPGLAIHCMQVHYE as the variant, how does the protein stability index read?
A: The protein stability index was 2.19.

Q: Which protein stability index does the source give for CHICHKKLYTGPGLAIHCMQVHAE here?
A: Its protein stability index is 3.14.

Q: For CHICHKKLYTGPGLAIHCMQVHNE, which protein stability index is on record?
A: Its protein stability index is 4.12.

Q: Which protein stability index does the source give for CHICHKKLYTGPGLAIHCMQVHVE here?
A: Its protein stability index is 3.19.

Q: With CHICHKKLYTGPGLAIHCMQVHPE as the variant, how does the protein stability index read?
A: The protein stability index was 3.04.

Q: With CHICHKKLYTGPGLAIHCMQVHDE as the variant, how does the protein stability index read?
A: The protein stability index was 3.87.

Q: With CHICHKKLYTGPGLAIHCMQVHME as the variant, how does the protein stability index read?
A: Its protein stability index is 3.49.

Q: For CHICHKKLYTGPGLAIHCMQVHQE, which protein stability index is on record?
A: Its protein stability index is 3.52.

Q: Which protein stability index does the source give for CHICHKKLYTGPGLAIHCMQVHFE here?
A: Its protein stability index is 2.04.

Q: Which protein stability index does the source give for CHICHKKLYTGPGLAIHCMQVHEE here?
A: The protein stability index was 3.95.

Q: With CHICHKKLYTGPGLAIHCMQVHGE as the variant, how does the protein stability index read?
A: The protein stability index was 3.68.

Q: For CHICHKKLYTGPGLAIHCMQVHTE, which protein stability index is on record?
A: Its protein stability index is 2.61.

Q: Which protein stability index does the source give for CHICHKKLYTGPGLAIHCMQVHWE here?
A: Its protein stability index is 2.25.

Q: For CHICHKKLYTGPGLAIHCMQVHLE, which protein stability index is on record?
A: Its protein stability index is 2.38.

Q: Which protein stability index does the source give for CHICHKKLYTGPGLAIHCMQVHCE here?
A: The protein stability index was 3.06.

Q: With CHICHKKLYTGPGLAIHCMQVHHE as the variant, how does the protein stability index read?
A: Its protein stability index is 3.48.

Q: For CHICHKKLYTGPGLAIHCMQVHIE, which protein stability index is on record?
A: The protein stability index was 2.21.

Variants of: B2
Test: as above
Settings: c terminus: a fixed tail appended

Q: Which protein stability index does the source give for YTFGSNVHGQLGTNTRRGSRAPCK here?
A: The protein stability index was 3.84.

Q: With YTFGSNMHGQLGTNTRRGSRAPCK as the variant, how does the protein stability index read?
A: Its protein stability index is 3.66.

Q: Which protein stability index does the source give for YTFGSNIHGQLGTNTRRGSRAPCK here?
A: Its protein stability index is 3.45.

Q: For YTFGSNCHGQLGTNTRRGSRAPCK, which protein stability index is on record?
A: Its protein stability index is 3.59.

Q: Which protein stability index does the source give for YTFGSNYHGQLGTNTRRGSRAPCK here?
A: Its protein stability index is 3.09.

Q: For YTFGSNLHGQLGTNTRRGSRAPCK, which protein stability index is on record?
A: Its protein stability index is 2.28.

Q: With YTFGSNKHGQLGTNTRRGSRAPCK as the variant, how does the protein stability index read?
A: Its protein stability index is 3.8.

Q: Which protein stability index does the source give for YTFGSNRHGQLGTNTRRGSRAPCK here?
A: Its protein stability index is 3.81.

Q: Which protein stability index does the source give for YTFGSNWHGQLGTNTRRGSRAPCK here?
A: Its protein stability index is 2.73.

Q: With YTFGSNNHGQLGTNTRRGSRAPCK as the variant, how does the protein stability index read?
A: Its protein stability index is 4.06.

Q: With YTFGSNGHGQLGTNTRRGSRAPCK as the variant, how does the protein stability index read?
A: Its protein stability index is 4.07.

Q: Which protein stability index does the source give for YTFGSNFHGQLGTNTRRGSRAPCK here?
A: Its protein stability index is 1.54.

Q: Which protein stability index does the source give for YTFGSNTHGQLGTNTRRGSRAPCK here?
A: The protein stability index was 4.28.

Q: Which protein stability index does the source give for YTFGSNEHGQLGTNTRRGSRAPCK here?
A: The protein stability index was 4.2.

Q: With YTFGSNAHGQLGTNTRRGSRAPCK as the variant, how does the protein stability index read?
A: The protein stability index was 3.55.

Q: For YTFGSNHHGQLGTNTRRGSRAPCK, which protein stability index is on record?
A: Its protein stability index is 3.84.

Q: Which protein stability index does the source give for YTFGSNDHGQLGTNTRRGSRAPCK here?
A: The protein stability index was 3.98.

Q: With YTFGSNPHGQLGTNTRRGSRAPCK as the variant, how does the protein stability index read?
A: The protein stability index was 3.81.

Q: With YTFGSNSHGQLGTNTRRGSRAPCK as the variant, how does the protein stability index read?
A: Its protein stability index is 3.58.

Q: Which protein stability index does the source give for YTFGSRQHGQLGTNTRRGSRAPCK here?
A: Its protein stability index is 4.18.

Q: With YTFGSLQHGQLGTNTRRGSRAPCK as the variant, how does the protein stability index read?
A: Its protein stability index is 3.29.

Q: For YTFGSEQHGQLGTNTRRGSRAPCK, which protein stability index is on record?
A: The protein stability index was 4.44.

Q: For YTFGSTQHGQLGTNTRRGSRAPCK, which protein stability index is on record?
A: The protein stability index was 3.54.

Q: For YTFGSGQHGQLGTNTRRGSRAPCK, which protein stability index is on record?
A: The protein stability index was 3.52.

Q: Which protein stability index does the source give for YTFGSQQHGQLGTNTRRGSRAPCK here?
A: The protein stability index was 4.21.

Q: For YTFGSHQHGQLGTNTRRGSRAPCK, which protein stability index is on record?
A: The protein stability index was 3.75.

Q: With YTFGSWQHGQLGTNTRRGSRAPCK as the variant, how does the protein stability index read?
A: Its protein stability index is 3.06.

Q: Which protein stability index does the source give for YTFGSAQHGQLGTNTRRGSRAPCK here?
A: The protein stability index was 3.94.

Q: For YTFGSVQHGQLGTNTRRGSRAPCK, which protein stability index is on record?
A: The protein stability index was 3.75.

Q: With YTFGSKQHGQLGTNTRRGSRAPCK as the variant, how does the protein stability index read?
A: Its protein stability index is 3.44.

Q: With YTFGSMQHGQLGTNTRRGSRAPCK as the variant, how does the protein stability index read?
A: Its protein stability index is 3.44.

Q: With YTFGSFQHGQLGTNTRRGSRAPCK as the variant, how does the protein stability index read?
A: Its protein stability index is 2.61.

Q: With YTFGSSQHGQLGTNTRRGSRAPCK as the variant, how does the protein stability index read?
A: The protein stability index was 3.86.

Q: For YTFGSIQHGQLGTNTRRGSRAPCK, which protein stability index is on record?
A: Its protein stability index is 3.6.

Q: Which protein stability index does the source give for YTFGSPQHGQLGTNTRRGSRAPCK here?
A: Its protein stability index is 4.07.

Q: For YTFGSDQHGQLGTNTRRGSRAPCK, which protein stability index is on record?
A: Its protein stability index is 4.24.

Q: For YTFGSCQHGQLGTNTRRGSRAPCK, which protein stability index is on record?
A: Its protein stability index is 3.78.

Q: For YTFGSYQHGQLGTNTRRGSRAPCK, which protein stability index is on record?
A: The protein stability index was 3.48.

Q: Which protein stability index does the source give for YNFGSNQHGQLGTNTRRGSRAPCK here?
A: The protein stability index was 4.61.

Q: With YGFGSNQHGQLGTNTRRGSRAPCK as the variant, how does the protein stability index read?
A: Its protein stability index is 4.33.

Q: Which protein stability index does the source give for YPFGSNQHGQLGTNTRRGSRAPCK here?
A: Its protein stability index is 4.18.

Q: With YWFGSNQHGQLGTNTRRGSRAPCK as the variant, how does the protein stability index read?
A: Its protein stability index is 3.32.

Q: For YLFGSNQHGQLGTNTRRGSRAPCK, which protein stability index is on record?
A: The protein stability index was 3.61.

Q: Which protein stability index does the source give for YCFGSNQHGQLGTNTRRGSRAPCK here?
A: The protein stability index was 2.88.

Q: Which protein stability index does the source give for YKFGSNQHGQLGTNTRRGSRAPCK here?
A: Its protein stability index is 3.83.

Q: For YSFGSNQHGQLGTNTRRGSRAPCK, which protein stability index is on record?
A: The protein stability index was 4.31.

Q: For YFFGSNQHGQLGTNTRRGSRAPCK, which protein stability index is on record?
A: The protein stability index was 3.25.

Q: With YAFGSNQHGQLGTNTRRGSRAPCK as the variant, how does the protein stability index read?
A: The protein stability index was 2.77.

Q: Which protein stability index does the source give for YIFGSNQHGQLGTNTRRGSRAPCK here?
A: The protein stability index was 2.44.
